{"source": "paper doi:10.1101/2025.09.11.675605", "key": {"[1]": {"target": "Human Epidermal Growth Factor Receptor 2 (human (endogenous in SKOV-3)) (UniProt P04626)", "assay": "flow cytometry on cells"}, "[2]": {"target": "encapsulin (MSMEI_5672) from Mycobacterium smegmatis mc^2155 with C-terminal Strep-tag (Mycobacterium smegmatis mc^2155)", "assay": "AF4-MALS"}}}
{"substance": "^ZHEREnc{eGFP}: encapsulin nanocompartment with ZHER_(2:342) affibody-decorated shell, loaded with eGFP (complex)", "values": [{"measurement": "fold MFI elevation", "setting": "[1]", "result": 62, "unit": "fold"}]}
{"substance": "tandem cytosine deaminase with C-terminal encapsulin localization sequence (enzyme)", "values": [{"measurement": "stoichiometry N (tdCD molecules per nanocompartment)", "setting": "[2]", "result": 18.7}]}
{"substance": "eGFP with C-terminal encapsulin localization sequence", "values": [{"measurement": "stoichiometry N (eGFP molecules per nanocompartment)", "setting": "[2]", "result": 17}]}
